According to doi:10.1101/2023.04.17.536592:

How the values were obtained:
[1] = target: H. sapiens nucleosome core particle (NCP) (human); assay: native gel or EMSA
[2] = target: Kaposi's Sarcoma Herpesvirus Latency Associated Nuclear Antigen (LANA) peptide (Kaposi's Sarcoma Herpesvirus); assay: fluorescence polarisation
Kaposi's Sarcoma Herpesvirus Latency Associated Nuclear Antigen (LANA) peptide (Kaposi's Sarcoma Herpesvirus), sequence (Q9QR71 4-23): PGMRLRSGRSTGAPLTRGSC

Row | Substance | Kd [1] [nM] | Kd [2] [nM]
1 | GST-His-TEV-tagged PFV GAG (from UniProt P14349 535-550) (peptide) | 3500 | –
2 | H. sapiens nucleosome core particle (NCP) (complex) | – | 2380
